Substitutions are numbered along the chain they refer to. In names and notes the source's numbering stands.

First the molecules themselves.
B1: FIXa variant D203N/F205T/K228N (mature FIX numbering) (protein)
chain 1: YNSGKLEEFVQGNLERECMEEKCSFEEAREVFENTERTTEFWKQYVDGDQCESNPCLNGGSCKDDINSYECWCPFGFEGKNCELDVTCNIKNGRCEQFCKNSADNKVVCSCTEGYRLAENQKSCEPAVPFPCGRVSVSQTSKLTR
chain 2: VVGGEDAKPGQFPWQVVLNGKVNATCGGSIVNEKWIVTAAHCVETGVNITVVAGEHNIEETEHTEQKRNVIRIIPHHNYNAAINKYNHDIALLELDEPLVLNSYVTPICIADKEYTNIFLKFGSGYVSGWGRVFHKGRSALVLQYLRVPLVDRATCLRSTKFTIYNNMFCAGFHEGGRDSCQGDSGGPHVTEVEGTSFLTGIISWGEECAMKGKYGIYTKVSRYVNWIKEKTKLT
B2: FIXa-Y155F/K247N/N249S/R338E/T343R/E410N (protein)
chain 1: B1 chain 1
chain 2: B1 chain 2 with N23D, T25F, N48K, K67N, N69S, R158E, T163R, E230N
B3: FIXa variant D203N/F205T/R338E (mature FIX numbering) (protein)
chain 1: B1 chain 1
chain 2: B1 chain 2 with N48K, R158E
B4: FIXa variant Y155F/R318Y/R403E/E410N (mature FIX numbering) (protein)
chain 1: B1 chain 1
chain 2: B1 chain 2 with N23D, T25F, N48K, R138Y, R223E, E230N
B5: FIXa variant Y155F/R318Y/R338E/E410N (mature FIX numbering) (protein)
chain 1: B1 chain 1
chain 2: B1 chain 2 with N23D, T25F, N48K, R138Y, R158E, E230N
B6: FIXa variant D104N/K106S/R318Y/R338E/R403E/E410N (mature FIX numbering) (protein)
chain 1: B1 chain 1 with D104N, K106S
chain 2: B1 chain 2 with N23D, T25F, N48K, R138Y, R158E, R223E, E230N
B7: FIXa-K247N/N249S/T343R/R403E/E410N (protein)
chain 1: B1 chain 1
chain 2: B1 chain 2 with N23D, T25F, N48K, K67N, N69S, T163R, R223E, E230N
B8: FIXa variant Y155F/R318Y/R338E/R403E/E410N (mature FIX numbering) (protein)
chain 1: B1 chain 1
chain 2: B1 chain 2 with N23D, T25F, N48K, R138Y, R158E, R223E, E230N
B9: FIXa-Y155F/R318Y/R338E/T343R (protein)
chain 1: B1 chain 1
chain 2: B1 chain 2 with N23D, T25F, N48K, R138Y, R158E, T163R
B10: FIXa-Y155F/K247N/N249S/T343R/R403E/E410N (protein)
chain 1: B1 chain 1
chain 2: B1 chain 2 with N23D, T25F, N48K, K67N, N69S, T163R, R223E, E230N
B11: FIXa variant A103N/N105S/R318Y/R338E/R403E/E410N (mature FIX numbering) (protein)
chain 1: B1 chain 1 with A103N, N105S
chain 2: B1 chain 2 with N23D, T25F, N48K, R138Y, R158E, R223E, E230N
B12: FIXa-Y155F/T343R/R403E/E410N (protein)
chain 1: B1 chain 1
chain 2: B1 chain 2 with N23D, T25F, N48K, T163R, R223E, E230N
B13: FIXa variant R318Y/R338E/R403E (mature FIX numbering) (protein)
chain 1: B1 chain 1
chain 2: B1 chain 2 with N23D, T25F, N48K, R138Y, R158E, R223E
B14: FIXa variant R318Y/R338E/R403E/E410N (mature FIX numbering) (protein)
chain 1: B1 chain 1
chain 2: B1 chain 2 with N23D, T25F, N48K, R138Y, R158E, R223E, E230N
B15: FIXa variant D104N/K106S/Y155F/R318Y/R338E/R403E/E410N (mature FIX numbering) (protein)
chain 1: B1 chain 1 with D104N, K106S
chain 2: B1 chain 2 with N23D, T25F, N48K, R138Y, R158E, R223E, E230N
B16: FIXa variant D203N/F205T/R338E/R403E (mature FIX numbering) (protein)
chain 1: B1 chain 1
chain 2: B1 chain 2 with N48K, R158E, R223E
B17: FIXa variant R318Y/R403E/E410N (mature FIX numbering) (protein)
chain 1: B1 chain 1
chain 2: B1 chain 2 with N23D, T25F, N48K, R138Y, R223E, E230N
B18: FIXa-D104N/K106S/Y155F/K247N/N249S/R318Y/R338E/R403E/E410N (protein)
chain 1: B1 chain 1 with D104N, K106S
chain 2: B1 chain 2 with N23D, T25F, N48K, K67N, N69S, R138Y, R158E, R223E, E230N
B19: FIXa variant Y155F/R318Y/R338E/R403E (mature FIX numbering) (protein)
chain 1: B1 chain 1
chain 2: B1 chain 2 with N23D, T25F, N48K, R138Y, R158E, R223E
B20: FIXa-Y155F/R318Y/T343R/R403E (protein)
chain 1: B1 chain 1
chain 2: B1 chain 2 with N23D, T25F, N48K, R138Y, T163R, R223E
B21: FIXa-K247N/N249S/R338E/T343R/E410N (protein)
chain 1: B1 chain 1
chain 2: B1 chain 2 with N23D, T25F, N48K, K67N, N69S, R158E, T163R, E230N
B22: FIXa variant D203N/F205T/R318Y/E410N (mature FIX numbering) (protein)
chain 1: B1 chain 1
chain 2: B1 chain 2 with N48K, R138Y, E230N
B23: FIXa variant D203N/F205T/E410N (mature FIX numbering) (protein)
chain 1: B1 chain 1
chain 2: B1 chain 2 with N48K, E230N
B24: FIXa variant R338E/R403E/E410N (mature FIX numbering) (protein)
chain 1: B1 chain 1
chain 2: B1 chain 2 with N23D, T25F, N48K, R158E, R223E, E230N
B25: FIXa variant R318Y/R338E/E410N (mature FIX numbering) (protein)
chain 1: B1 chain 1
chain 2: B1 chain 2 with N23D, T25F, N48K, R138Y, R158E, E230N
B26: FIXa variant A103N/N105S/Y155F/R318Y/R338E/R403E/E410N (mature FIX numbering) (protein)
chain 1: B1 chain 1 with A103N, N105S
chain 2: B1 chain 2 with N23D, T25F, N48K, R138Y, R158E, R223E, E230N
B27: FIXa-R318Y/R338E/T343R (protein)
chain 1: B1 chain 1
chain 2: B1 chain 2 with N23D, T25F, N48K, R138Y, R158E, T163R
B28: FIXa variant D203N/F205T/R338A (mature FIX numbering) (protein)
chain 1: B1 chain 1
chain 2: B1 chain 2 with N48K, R158A
B29: FIXa variant D104N/K106S/R318Y/R338E/E410N (mature FIX numbering) (protein)
chain 1: B1 chain 1 with D104N, K106S
chain 2: B1 chain 2 with N23D, T25F, N48K, R138Y, R158E, E230N
B30: FIXa variant Y155F/R338E/R403E/E410N (mature FIX numbering) (protein)
chain 1: B1 chain 1
chain 2: B1 chain 2 with N23D, T25F, N48K, R158E, R223E, E230N
B31: FIXa variant D203N/F205T/R318Y (mature FIX numbering) (protein)
chain 1: B1 chain 1
chain 2: B1 chain 2 with N48K, R138Y
B32: FIXa-Y155F/R318Y/R403E/E410N (protein)
chain 1: B1 chain 1
chain 2: B1 chain 2 with N23D, T25F, N48K, R138Y, R223E, E230N
B33: FIXa variant K228N/R338E/R403E (mature FIX numbering) (protein)
chain 1: B1 chain 1
chain 2: B1 chain 2 with N23D, T25F, R158E, R223E
B34: FIXa variant K228N/R318Y/E410N (mature FIX numbering) (protein)
chain 1: B1 chain 1
chain 2: B1 chain 2 with N23D, T25F, R138Y, E230N
B35: FIXa K293E/R338E/R403E (protein)
chain 1: B1 chain 1
chain 2: B1 chain 2 with N23D, T25F, N48K, K113E, R158E, R223E
B36: FIXa-Y155F/R338E/R403E/E410N (protein)
chain 1: B1 chain 1
chain 2: B1 chain 2 with N23D, T25F, N48K, R178E, R223E, E230N
B37: FIXa R318Y/R338E/R403E (protein)
chain 1: B1 chain 1
chain 2: B1 chain 2 with N23D, T25F, N48K, R138Y, R158E, R223E
B38: FIXa R318Y/R338E/E410N (protein)
chain 1: B1 chain 1
chain 2: B1 chain 2 with N23D, T25F, N48K, R138Y, R158E, E230N
B39: FIXa R318Y/R338E/R403E/E410N (protein)
chain 1: B1 chain 1
chain 2: B1 chain 2 with N23D, T25F, N48K, R138Y, R158E, R223E, E230N

Sequence of Factor X (FX), P00742 (P00742 whole entry, looked up): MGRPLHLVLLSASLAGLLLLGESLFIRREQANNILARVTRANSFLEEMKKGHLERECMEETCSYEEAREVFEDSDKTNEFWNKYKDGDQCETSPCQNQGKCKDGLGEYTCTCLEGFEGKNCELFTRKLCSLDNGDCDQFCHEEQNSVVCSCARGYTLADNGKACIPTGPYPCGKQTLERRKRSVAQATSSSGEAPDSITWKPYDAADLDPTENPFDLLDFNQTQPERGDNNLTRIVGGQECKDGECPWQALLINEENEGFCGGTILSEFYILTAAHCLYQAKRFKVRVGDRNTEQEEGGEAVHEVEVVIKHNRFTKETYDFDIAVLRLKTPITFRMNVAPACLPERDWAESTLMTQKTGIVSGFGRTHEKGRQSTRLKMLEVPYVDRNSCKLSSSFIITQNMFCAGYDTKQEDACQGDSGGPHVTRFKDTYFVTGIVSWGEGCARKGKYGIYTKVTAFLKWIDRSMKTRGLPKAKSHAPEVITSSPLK
Sequence of Factor X, P00742 (P00742 whole entry, looked up): as above

One data set addresses Factor X (FX), P00742.
For B1, the KM of FX activation by FIXa in the Xase complex (FVIIIa, PC/PS vesicles, Ca2+) was found to be 0.0399 µM.

Broadly, the kcat is the number of substrate molecules converted per active site and unit of time at saturation. A word on the kcat/KM: it is the turnover number divided by the Michaelis constant. Take B2: the kcat came out at 4.8 s⁻¹ and the kcat/KM is 1.8e+08 M⁻¹ s⁻¹.

For B3, the KM of FX activation by FIXa in the Xase complex (FVIIIa, PC/PS vesicles, Ca2+) was 0.0241 µM.

In the case of B4, the KM of FX activation by FIXa in the Xase complex (FVIIIa, PC/PS vesicles, Ca2+) amounted to 0.111 µM.

For B5, the KM of FX activation by FIXa in the Xase complex (FVIIIa, PC/PS vesicles, Ca2+) came out at 0.016 µM.

For the protein B6, the KM of FX activation by FIXa in the Xase complex (FVIIIa, PC/PS vesicles, Ca2+) was 0.0385 µM.

B7: the kcat came to 8 s⁻¹ and the specificity constant (kcat/KM) was found to be 1.3e+08 M⁻¹ s⁻¹.

As for B8, the KM of FX activation by FIXa in the Xase complex (FVIIIa, PC/PS vesicles, Ca2+) amounted to 0.0304 µM.

B9: the kcat amounted to 7.9 s⁻¹ and the kcat/KM was 3.6e+08 M⁻¹ s⁻¹.

With B10, the kcat turned out to be 15 s⁻¹ and the kcat/KM came to 2.9e+08 M⁻¹ s⁻¹.

Turning to B11, the KM of FX activation by FIXa in the Xase complex (FVIIIa, PC/PS vesicles, Ca2+) was determined as 0.0447 µM.

As for B12, the kcat worked out at 6.6 s⁻¹ and the kcat/KM was determined as 1.5e+08 M⁻¹ s⁻¹.

In the case of B13, the KM of FX activation by FIXa in the Xase complex (FVIIIa, PC/PS vesicles, Ca2+) amounted to 0.0597 µM.

Regarding B14, the KM of FX activation by FIXa in the Xase complex (FVIIIa, PC/PS vesicles, Ca2+) stood at 0.0432 µM.

B15: the KM of FX activation by FIXa in the Xase complex (FVIIIa, PC/PS vesicles, Ca2+) came to 0.048 µM.

Consider B16, for which the KM of FX activation by FIXa in the Xase complex (FVIIIa, PC/PS vesicles, Ca2+) stood at 0.0511 µM.

As to B17, the KM of FX activation by FIXa in the Xase complex (FVIIIa, PC/PS vesicles, Ca2+) was 0.0942 µM.

Consider B18, for which the kcat/KM was found to be 1.3e+08 M⁻¹ s⁻¹.

Turning to B19, the KM of FX activation by FIXa in the Xase complex (FVIIIa, PC/PS vesicles, Ca2+) stood at 0.0671 µM.

B20: the catalytic constant (kcat) turned out to be 5 s⁻¹ and the kcat/KM came out at 7.1e+07 M⁻¹ s⁻¹.

Consider B21, for which the kcat came out at 7.9 s⁻¹ and the specificity constant (kcat/KM) turned out to be 3.1e+08 M⁻¹ s⁻¹.

On to B22, for which the KM of FX activation by FIXa in the Xase complex (FVIIIa, PC/PS vesicles, Ca2+) came out at 0.0457 µM.

B23: the KM of FX activation by FIXa in the Xase complex (FVIIIa, PC/PS vesicles, Ca2+) came out at 0.0455 µM.

Take B24: the KM of FX activation by FIXa in the Xase complex (FVIIIa, PC/PS vesicles, Ca2+) stood at 0.0367 µM.

B25: the KM of FX activation by FIXa in the Xase complex (FVIIIa, PC/PS vesicles, Ca2+) is 0.0139 µM.

With B26, the KM of FX activation by FIXa in the Xase complex (FVIIIa, PC/PS vesicles, Ca2+) amounted to 0.0507 µM.

For the protein B27, the kcat stood at 4.5 s⁻¹ and the kcat/KM came to 1.5e+08 M⁻¹ s⁻¹.

Take B28: the KM of FX activation by FIXa in the Xase complex (FVIIIa, PC/PS vesicles, Ca2+) amounted to 0.0385 µM.

As to B29, the KM of FX activation by FIXa in the Xase complex (FVIIIa, PC/PS vesicles, Ca2+) was 0.0189 µM.

For B30, the KM of FX activation by FIXa in the Xase complex (FVIIIa, PC/PS vesicles, Ca2+) is 0.0336 µM.

For the protein B31, the KM of FX activation by FIXa in the Xase complex (FVIIIa, PC/PS vesicles, Ca2+) was determined as 0.0475 µM.

B32: the kcat/KM (M^-1s^-1), FX activation by FIXa in the Xase complex amounted to 3.6e+07 M⁻¹ s⁻¹.

B33: the KM of FX activation by FIXa in the Xase complex (FVIIIa, PC/PS vesicles, Ca2+) came to 0.0592 µM.

Turning to B34, the KM of FX activation by FIXa in the Xase complex (FVIIIa, PC/PS vesicles, Ca2+) turned out to be 0.042 µM.

The next data set concerns the target Factor X, P00742.
Regarding B35, the kcat was found to be 0.8 s⁻¹.

For B36, the “% of WT (kcat/KM)” value is listed as 401% and the kcat/KM turned out to be 1.8e+08 M⁻¹ s⁻¹.

Regarding B37, the kcat is 3.5 s⁻¹.

On to B38, for which the kcat was found to be 4.6 s⁻¹.

Regarding B39, the kcat is 5 s⁻¹.

For the origin of these results see patent publication US20210230570.
